The results in this text go back to publication PMC8918354.

The assay has as its target iron superoxide dismutase SodB from Acinetobacter sp. Ver3 (Acinetobacter sp. Ver3). Nature of the assay: crystal structure; space group C222(1), one molecule per asymmetric unit, dimer formed by crystallographic symmetry; 1.34 Å; crystals grown at 20 °C from 10 mg/ml protein with 1 mM FMN in the mother liquor.

One may read the stoichiometry N as the number of molecules, sites or subunits per partner or assembly.

For “iron superoxide dismutase SodB from Acinetobacter sp. Ver3 (enzyme)”, the stoichiometry N was determined as 2.
